In the Human Domainome abundance scans (Beltran et al. 2025):
± gives the uncertainty stated by the source.

B1: Steroid hormone receptor ERR2, residues 100 to 176; numbered along this chain, O95718 (parent)
chain: KRLCLVCGDIASGYHYGVASCEACKAFFKRTIQGNIEYSCPATNECEITKRRRKSCQACRFMKCLKVGMLKEGVRLD

Variants of: B1
Assay: abundance fitness (aPCA) (normalised: wild type 0, dead -1); higher = more abundant; growth selection in yeast, the domain comes from the species named
Settings: Homo sapiens

Variant	abundance fitness
KRLCLVCGDIASGYHYGVASCEACKAFFKRTIQGNIEYSCPATNHCEITKRRRKSCQACRFMKCLKVGMLKEGVRLD	-0.143 ± 0.1
KRLCLVCGDIASGYHYGVASCEACKAFFKRTIQGNIEYSCPATNICEITKRRRKSCQACRFMKCLKVGMLKEGVRLD	-0.288 ± 0.18
KRLCLVCGDIASGYHYGVASCEACKAFFKRTIQGNIEYSCPATNVCEITKRRRKSCQACRFMKCLKVGMLKEGVRLD	-0.144 ± 0.047
KRLCLVCGDIASGYHYGVASCEACKAFFKRTIQGNIEYSCPATNWCEITKRRRKSCQACRFMKCLKVGMLKEGVRLD	-0.981 ± 0.2
KRLCLVCGDIASGYHYGVASCEACKAFFKRTIQGNIEYSCPATNMCEITKRRRKSCQACRFMKCLKVGMLKEGVRLD	-0.176 ± 0.068
KRLCLVCGDIASGYHYGVASCEACKAFFKRTIQGNIEYSCPATNTCEITKRRRKSCQACRFMKCLKVGMLKEGVRLD	-0.209 ± 0.085
KRLCLVCGDIASGYHYGVASCEACKAFFKRTIQGNIEYSCPATNFCEITKRRRKSCQACRFMKCLKVGMLKEGVRLD	-0.329 ± 0.17
KRLCLVCGDIASGYHYGVASCEACKAFFKRTIQGNIEYSCPATNDCEITKRRRKSCQACRFMKCLKVGMLKEGVRLD	-0.086 ± 0.086
KRLCLVCGDIASGYHYGVASCEACKAFFKRTIQGNIEYSCPATNQCEITKRRRKSCQACRFMKCLKVGMLKEGVRLD	0.055 ± 0.059
KRLCLVCGDIASGYHYGVASCEACKAFFKRTIQGNIEYSCPATNGCEITKRRRKSCQACRFMKCLKVGMLKEGVRLD	0.003 ± 0.042
KRLCLVCGDIASGYHYGVASCEACKAFFKRTIQGNIEYSCPATNACEITKRRRKSCQACRFMKCLKVGMLKEGVRLD	-0.172 ± 0.051
KRLCLVCGDIASGYHYGVASCEACKAFFKRTIQGNIEYSCPATNCCEITKRRRKSCQACRFMKCLKVGMLKEGVRLD	-0.396 ± 0.11
KRLCLVCGDIASGYHYGVASCEACKAFFKRTIQGNIEYSCPATNLCEITKRRRKSCQACRFMKCLKVGMLKEGVRLD	-0.303 ± 0.06
KRLCLVCGDIASGYHYGVASCEACKAFFKRTIQGNIEYSCPATNPCEITKRRRKSCQACRFMKCLKVGMLKEGVRLD	-0.637 ± 0.15
KRLCLVCGDIASGYHYGVASCEACKAFFKRTIQGNIEYSCPATNNCEITKRRRKSCQACRFMKCLKVGMLKEGVRLD	-0.235 ± 0.12
KRLCLVCGDIASGYHYGVASCEACKAFFKRTIQGNIEYSCPATNSCEITKRRRKSCQACRFMKCLKVGMLKEGVRLD	-0.149 ± 0.058
KRLCLVCGDIASGYHYGVASCEACKAFFKRTIQGNIEYSCPATNECEMTKRRRKSCQACRFMKCLKVGMLKEGVRLD	-0.166 ± 0.11
KRLCLVCGDIASGYHYGVASCEACKAFFKRTIQGNIEYSCPATNECENTKRRRKSCQACRFMKCLKVGMLKEGVRLD	0.266 ± 0.16
KRLCLVCGDIASGYHYGVASCEACKAFFKRTIQGNIEYSCPATNECECTKRRRKSCQACRFMKCLKVGMLKEGVRLD	-0.312 ± 0.14
KRLCLVCGDIASGYHYGVASCEACKAFFKRTIQGNIEYSCPATNECEATKRRRKSCQACRFMKCLKVGMLKEGVRLD	-0.157 ± 0.079
KRLCLVCGDIASGYHYGVASCEACKAFFKRTIQGNIEYSCPATNECETTKRRRKSCQACRFMKCLKVGMLKEGVRLD	-0.159 ± 0.075
KRLCLVCGDIASGYHYGVASCEACKAFFKRTIQGNIEYSCPATNECERTKRRRKSCQACRFMKCLKVGMLKEGVRLD	-0.518 ± 0.093
KRLCLVCGDIASGYHYGVASCEACKAFFKRTIQGNIEYSCPATNECEPTKRRRKSCQACRFMKCLKVGMLKEGVRLD	-0.242 ± 0.11
KRLCLVCGDIASGYHYGVASCEACKAFFKRTIQGNIEYSCPATNECEGTKRRRKSCQACRFMKCLKVGMLKEGVRLD	-0.191 ± 0.066

Variant	abundance fitness
KRLCLVCGDIASGYHYGVASCEACKAFFKRTIQGNIEYSCPATNECEFTKRRRKSCQACRFMKCLKVGMLKEGVRLD	-0.298 ± 0.093
KRLCLVCGDIASGYHYGVASCEACKAFFKRTIQGNIEYSCPATNECESTKRRRKSCQACRFMKCLKVGMLKEGVRLD	-0.108 ± 0.061
KRLCLVCGDIASGYHYGVASCEACKAFFKRTIQGNIEYSCPATIECEITKRRRKSCQACRFMKCLKVGMLKEGVRLD	0.034 ± 0.13
KRLCLVCGDIASGYHYGVASCEACKAFFKRTIQGNIEYSCPATLECEITKRRRKSCQACRFMKCLKVGMLKEGVRLD	-0.278 ± 0.059
KRLCLVCGDIASGYHYGVASCEACKAFFKRTIQGNIEYSCPATYECEITKRRRKSCQACRFMKCLKVGMLKEGVRLD	-0.278 ± 0.13
KRLCLVCGDIASGYHYGVASCEACKAFFKRTIQGNIEYSCPATRECEITKRRRKSCQACRFMKCLKVGMLKEGVRLD	0.011 ± 0.038
KRLCLVCGDIASGYHYGVASCEACKAFFKRTIQGNIEYSCPATWECEITKRRRKSCQACRFMKCLKVGMLKEGVRLD	-0.269 ± 0.058
KRLCLVCGDIASGYHYGVASCEACKAFFKRTIQGNIEYSCPATVECEITKRRRKSCQACRFMKCLKVGMLKEGVRLD	-0.077 ± 0.049
KRLCLVCGDIASGYHYGVASCEACKAFFKRTIQGNIEYSCPATTECEITKRRRKSCQACRFMKCLKVGMLKEGVRLD	-0.22 ± 0.063
KRLCLVCGDIASGYHYGVASCEACKAFFKRTIQGNIEYSCPATKECEITKRRRKSCQACRFMKCLKVGMLKEGVRLD	0.007 ± 0.054
KRLCLVCGDIASGYHYGVASCEACKAFFKRTIQGNIEYSCPATPECEITKRRRKSCQACRFMKCLKVGMLKEGVRLD	-0.741 ± 0.14
KRLCLVCGDIASGYHYGVASCEACKAFFKRTIQGNIEYSCPATQECEITKRRRKSCQACRFMKCLKVGMLKEGVRLD	-0.013 ± 0.059
KRLCLVCGDIASGYHYGVASCEACKAFFKRTIQGNIEYSCPATSECEITKRRRKSCQACRFMKCLKVGMLKEGVRLD	-0.127 ± 0.05
KRLCLVCGDIASGYHYGVASCEACKAFFKRTIQGNIEYSCPATNEMEITKRRRKSCQACRFMKCLKVGMLKEGVRLD	-0.557 ± 0.12
KRLCLVCGDIASGYHYGVASCEACKAFFKRTIQGNIEYSCPATNEREITKRRRKSCQACRFMKCLKVGMLKEGVRLD	-0.704 ± 0.082
KRLCLVCGDIASGYHYGVASCEACKAFFKRTIQGNIEYSCPATNEPEITKRRRKSCQACRFMKCLKVGMLKEGVRLD	-0.796 ± 0.17
KRLCLVCGDIASGYHYGVASCEACKAFFKRTIQGNIEYSCPATNESEITKRRRKSCQACRFMKCLKVGMLKEGVRLD	-0.539 ± 0.079
KRLCLVCGDIASGYHYGVASCEACKAFFKRTIQGNIEYSCPATNEEEITKRRRKSCQACRFMKCLKVGMLKEGVRLD	-0.623 ± 0.11
KRLCLVCGDIASGYHYGVASCEACKAFFKRTIQGNIEYSCPATNEFEITKRRRKSCQACRFMKCLKVGMLKEGVRLD	-0.768 ± 0.21
KRLCLVCGDIASGYHYGVASCEACKAFFKRTIQGNIEYSCPATNEKEITKRRRKSCQACRFMKCLKVGMLKEGVRLD	-0.572 ± 0.14
KRLCLVCGDIASGYHYGVASCEACKAFFKRTIQGNIEYSCPATNEIEITKRRRKSCQACRFMKCLKVGMLKEGVRLD	-1.06 ± 0.43
KRLCLVCGDIASGYHYGVASCEACKAFFKRTIQGNIEYSCPATNETEITKRRRKSCQACRFMKCLKVGMLKEGVRLD	-0.766 ± 0.15
KRLCLVCGDIASGYHYGVASCEACKAFFKRTIQGNIEYSCPATNEGEITKRRRKSCQACRFMKCLKVGMLKEGVRLD	-0.679 ± 0.073
KRLCLVCGDIASGYHYGVASCEACKAFFKRTIQGNIEYSCPATNEAEITKRRRKSCQACRFMKCLKVGMLKEGVRLD	-0.888 ± 0.14

Variant	abundance fitness
KRLCLVCGDIASGYHYGVASCEACKAFFKRTIQGNIEYSCPATNEDEITKRRRKSCQACRFMKCLKVGMLKEGVRLD	-0.844 ± 0.22
KRLCLVCGDIASGYHYGVASCEACKAFFKRTIQGNIEYSCPATNENEITKRRRKSCQACRFMKCLKVGMLKEGVRLD	-0.735 ± 0.2
KRLCLVCGDIASGYHYGVASCEACKAFFKRTIQGNIEYSCPATNEVEITKRRRKSCQACRFMKCLKVGMLKEGVRLD	-0.615 ± 0.084
KRLCLVCGDIASGYHYGVASCEACKAFFKRTIQGNIEYSCPATNEHEITKRRRKSCQACRFMKCLKVGMLKEGVRLD	-0.308 ± 0.2
KRLCLVCGDIASGYHYGVASCEACKAFFKRTIQGNIEYSCPATNEQEITKRRRKSCQACRFMKCLKVGMLKEGVRLD	-0.834 ± 0.17
KRLCLVCGDIASGYHYGVASCEACKAFFKRTIQGNIEYSCPATNEWEITKRRRKSCQACRFMKCLKVGMLKEGVRLD	-0.733 ± 0.098
KRLCLVCGDIASGYHYGVASCEACKAFFKRTIQGNIEYSCPATNEYEITKRRRKSCQACRFMKCLKVGMLKEGVRLD	-0.59 ± 0.23
KRLCLVCGDIASGYHYGVASCEACKAFFKRTIQGNIEYSCPATNELEITKRRRKSCQACRFMKCLKVGMLKEGVRLD	-0.803 ± 0.1
KRLCLVCGDIASGYHYGVASCEACKAFFKRTIQGNIEYSCPATNECTITKRRRKSCQACRFMKCLKVGMLKEGVRLD	-0.112 ± 0.087
KRLCLVCGDIASGYHYGVASCEACKAFFKRTIQGNIEYSCPATNECCITKRRRKSCQACRFMKCLKVGMLKEGVRLD	-0.172 ± 0.11
KRLCLVCGDIASGYHYGVASCEACKAFFKRTIQGNIEYSCPATNECLITKRRRKSCQACRFMKCLKVGMLKEGVRLD	-0.103 ± 0.061
KRLCLVCGDIASGYHYGVASCEACKAFFKRTIQGNIEYSCPATNECAITKRRRKSCQACRFMKCLKVGMLKEGVRLD	-0.102 ± 0.056
KRLCLVCGDIASGYHYGVASCEACKAFFKRTIQGNIEYSCPATNECNITKRRRKSCQACRFMKCLKVGMLKEGVRLD	-0.09 ± 0.12
KRLCLVCGDIASGYHYGVASCEACKAFFKRTIQGNIEYSCPATNECYITKRRRKSCQACRFMKCLKVGMLKEGVRLD	-0.184 ± 0.12
KRLCLVCGDIASGYHYGVASCEACKAFFKRTIQGNIEYSCPATNECIITKRRRKSCQACRFMKCLKVGMLKEGVRLD	-0.476 ± 0.16
KRLCLVCGDIASGYHYGVASCEACKAFFKRTIQGNIEYSCPATNECDITKRRRKSCQACRFMKCLKVGMLKEGVRLD	0.038 ± 0.082
KRLCLVCGDIASGYHYGVASCEACKAFFKRTIQGNIEYSCPATNECKITKRRRKSCQACRFMKCLKVGMLKEGVRLD	-0.155 ± 0.091
KRLCLVCGDIASGYHYGVASCEACKAFFKRTIQGNIEYSCPATNECGITKRRRKSCQACRFMKCLKVGMLKEGVRLD	-0.165 ± 0.045
KRLCLVCGDIASGYHYGVASCEACKAFFKRTIQGNIEYSCPATNECMITKRRRKSCQACRFMKCLKVGMLKEGVRLD	-0.592 ± 0.15
KRLCLVCGDIASGYHYGVASCEACKAFFKRTIQGNIEYSCPATNECSITKRRRKSCQACRFMKCLKVGMLKEGVRLD	-0.229 ± 0.064
KRLCLVCGDIASGYHYGVASCEACKAFFKRTIQGNIEYSCPATNECVITKRRRKSCQACRFMKCLKVGMLKEGVRLD	-0.14 ± 0.058
KRLCLVCGDIASGYHYGVASCEACKAFFKRTIQGNIEYSCPATNECQITKRRRKSCQACRFMKCLKVGMLKEGVRLD	-0.083 ± 0.069
KRLCLVCGDIASGYHYGVASCEACKAFFKRTIQGNIEYSCPATNECFITKRRRKSCQACRFMKCLKVGMLKEGVRLD	-0.354 ± 0.13
